The values below are quoted from earlier work in article PMC6006191.

The term Kd denotes the constant that tells how readily two partners part at equilibrium.

The data set deals with GLRX3 (Homo sapiens) (UniProt O76003). As to the kind of experiment: NMR.
UniProt O76003, sequence (O76003 2-335): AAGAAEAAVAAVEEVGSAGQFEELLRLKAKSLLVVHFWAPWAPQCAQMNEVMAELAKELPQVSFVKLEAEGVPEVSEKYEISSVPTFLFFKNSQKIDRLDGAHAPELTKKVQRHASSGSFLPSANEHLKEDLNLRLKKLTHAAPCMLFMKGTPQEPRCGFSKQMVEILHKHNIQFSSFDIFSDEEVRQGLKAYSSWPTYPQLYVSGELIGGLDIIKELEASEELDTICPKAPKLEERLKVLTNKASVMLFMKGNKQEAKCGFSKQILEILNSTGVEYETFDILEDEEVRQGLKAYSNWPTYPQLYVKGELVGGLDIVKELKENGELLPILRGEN

As for BOLA2 (apo) (from UniProt Q9H3K6), the Kd was 25 µM.
